Assay results published in the supplement of paper PMC7125110.
± gives the standard error. This sample holds only a part of the variants without activity.

B1: glmS ribozyme (parent)
chain: AUAAAAGCGCCAGAACUACAGAAAUGUAGUUGACGAGGAGGAGGUUUAUCGAAUUUUCGGCGGAUGCCUCCAAA

Legend:
Settings in all cases: with glucosamine-6-phosphate
[1] = variants of: B1; assay: self-cleavage kobs at 160 uM GlcN6P; higher = faster cleavage; RNA array
Procedure, shortened: (§1)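 Weighted Michaelis–Menten fits across concentrations supplied kcat and KM, based on kobs from one- or two-exponential decay fits to normalised per-tile medians. The data came from barcoded ribozyme variants transcribed in situ by E. coli RNA polymerase on sequenced MiSeq chips and tracked at 37 °C by a hybridised Cy3 probe. Glucosamine-6-phosphate (40 μM to 10 mM) in HEPES/KCl/Mg(OAc)2 buffer was flowed in.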

[2] = variants of: B1; assay: self-cleavage kobs at 2500 uM GlcN6P; higher = faster cleavage; RNA array
Procedure, shortened: as §1

[3] = variants of: B1; assay: self-cleavage kobs at 640 uM GlcN6P; higher = faster cleavage; RNA array
Procedure, shortened: as §1

[4] = variants of: B1; assay: self-cleavage kobs at 10000 uM GlcN6P; higher = faster cleavage; RNA array
Procedure, shortened: as §1

Variant | self-cleavage kobs at 160 uM GlcN6P [1] [s⁻¹] | self-cleavage kobs at 2500 uM GlcN6P [2] [s⁻¹] | self-cleavage kobs at 640 uM GlcN6P [3] [s⁻¹] | self-cleavage kobs at 10000 uM GlcN6P [4] [s⁻¹]
U30G A39U G60U | < 1e-05 | < 1e-05 | – | –
C8G G38A | < 1e-05 | < 1e-05 | < 1e-05 | < 1e-05
C11U G29U G40A | < 1e-05 | – | < 1e-05 | 5.39e-05 ± 1.7e-05
G29A G40C U55A U56G C67U | < 1e-05 | < 1e-05 | < 1e-05 | –
G43A G44A U47A | < 1e-05 | – | – | –
U49G G51C C61U G63A | < 1e-05 | – | – | –
G40C G60U C67G | < 1e-05 | < 1e-05 | < 1e-05 | –
G40C G63A | < 1e-05 | < 1e-05 | < 1e-05 | < 1e-05
A12U A14C U47A | 0.000117 ± 2.3e-05 | 0.00107 ± 0.00025 | 0.000593 ± 0.00011 | –
U45C A64U | < 1e-05 | – | < 1e-05 | –
G41U U65A C68G | < 1e-05 | < 1e-05 | – | –
A15C C34A | < 1e-05 | < 1e-05 | < 1e-05 | < 1e-05
G29A A33G | < 1e-05 | < 1e-05 | < 1e-05 | < 1e-05
C10A U30G A48U | < 1e-05 | < 1e-05 | < 1e-05 | < 1e-05
A6G A12C G40A | < 1e-05 | < 1e-05 | < 1e-05 | –
G40C A48U C61U | < 1e-05 | – | < 1e-05 | –
A12G C34A C50A G60C | < 1e-05 | < 1e-05 | – | –
G41U G51C G62A C68U | < 1e-05 | < 1e-05 | < 1e-05 | –
A33G G41A C70A | < 1e-05 | – | < 1e-05 | < 1e-05
G51A G66A | < 1e-05 | – | < 1e-05 | –
C11U U69A | 5.24e-05 ± 1.6e-05 | 0.000157 ± 3.2e-05 | 0.000191 ± 5.6e-05 | 6.31e-05 ± 1.7e-05
A6G C34G G51U G63A | < 1e-05 | < 1e-05 | < 1e-05 | –
U49A A52U U65A U69G | 7.53e-05 ± 2.4e-05 | – | 0.00031 ± 0.00012 | –
A52G G60A | < 1e-05 | – | – | < 1e-05
G51C U65G | < 1e-05 | < 1e-05 | < 1e-05 | –

Variant | self-cleavage kobs at 160 uM GlcN6P [1] [s⁻¹] | self-cleavage kobs at 2500 uM GlcN6P [2] [s⁻¹] | self-cleavage kobs at 640 uM GlcN6P [3] [s⁻¹] | self-cleavage kobs at 10000 uM GlcN6P [4] [s⁻¹]
U31A C34A U55A C67G | < 1e-05 | < 1e-05 | < 1e-05 | –
G9C C10U G41A G43U | < 1e-05 | – | < 1e-05 | –
G13A G35U G66U C67G | < 1e-05 | < 1e-05 | – | –
G40U G51U C58U | < 1e-05 | – | – | –
C10A U30A | < 1e-05 | < 1e-05 | < 1e-05 | < 1e-05
U31C U54A C67G | 3.53e-05 ± 9.2e-06 | 7.96e-05 ± 1.7e-05 | 8.75e-05 ± 2.2e-05 | –
A33U C61G C70U | < 1e-05 | – | – | –
C10G G63C U65G | < 1e-05 | < 1e-05 | – | –
G35C U46A U56A C61U C68U | < 1e-05 | < 1e-05 | – | –
A39U G51U G62U C71A | < 1e-05 | < 1e-05 | – | –
A33U G37C U46C | < 1e-05 | < 1e-05 | < 1e-05 | –
C50G U57G | 0.000283 ± 0.00012 | – | – | –
A12U A15G A36U | < 1e-05 | – | – | –
A6C C8A C67A | < 1e-05 | < 1e-05 | < 1e-05 | < 1e-05
G51C C67G | < 1e-05 | – | – | < 1e-05
G32A A42U | < 1e-05 | – | < 1e-05 | –
C16A A52G G63U G66U | < 1e-05 | – | < 1e-05 | –
G41U A52U U57C | < 1e-05 | – | – | –
G7U G37A A48C | < 1e-05 | < 1e-05 | < 1e-05 | < 1e-05
A6U A14G A15U U31G U55G | < 1e-05 | < 1e-05 | < 1e-05 | –
A15G U45A U56G A64C C70A | < 1e-05 | < 1e-05 | < 1e-05 | –
U45A U57C | 3.83e-05 ± 1.6e-05 | 0.000268 ± 4.2e-05 | 3.94e-05 ± 8.9e-06 | 0.000355 ± 4.8e-05
G32U G38U G43U A53U | < 1e-05 | – | < 1e-05 | –
G44C G51U C68G | < 1e-05 | – | – | –
G9U C68G | < 1e-05 | < 1e-05 | – | < 1e-05

Variant | self-cleavage kobs at 160 uM GlcN6P [1] [s⁻¹] | self-cleavage kobs at 2500 uM GlcN6P [2] [s⁻¹] | self-cleavage kobs at 640 uM GlcN6P [3] [s⁻¹] | self-cleavage kobs at 10000 uM GlcN6P [4] [s⁻¹]
A12C U31G U47A | 0.000155 ± 5.6e-05 | – | 0.000707 ± 0.00032 | –
C16U A33G C34A A39G | < 1e-05 | – | < 1e-05 | –
C10A G13U A15G G40U U46G | < 1e-05 | < 1e-05 | < 1e-05 | –
G32U C34G G43A | < 1e-05 | < 1e-05 | < 1e-05 | –
C10U U46C C70U | < 1e-05 | – | – | –
A6G A64G C67G | < 1e-05 | < 1e-05 | < 1e-05 | –
U30G G38C | < 1e-05 | < 1e-05 | < 1e-05 | –
G7U U30G C34G | < 1e-05 | < 1e-05 | – | < 1e-05
A1U U2G A3G A5U A14C U69C | 5.02e-05 ± 1.8e-05 | 0.000526 ± 0.00012 | 0.000257 ± 6e-05 | –
C8A A36C A42C G66C C67A | < 1e-05 | < 1e-05 | – | –
G35U U46C | < 1e-05 | – | < 1e-05 | –
A36G A42U U56C | < 1e-05 | < 1e-05 | < 1e-05 | –
U31A C50G | 0.000119 ± 2.4e-05 | 0.000577 ± 0.00022 | 0.000349 ± 0.00014 | –
G51C U54G | < 1e-05 | – | < 1e-05 | –
A15G C58A C70U | 0.000138 ± 2.8e-05 | 0.000182 ± 4.8e-05 | 8.95e-05 ± 1.1e-05 | 0.000281 ± 5.3e-05
G32U A42U | < 1e-05 | – | < 1e-05 | –
A6U C8A C16A | < 1e-05 | – | – | –
A15G C58G G63C C68G | 0.000162 ± 4.4e-05 | – | – | –
C10U U30C | < 1e-05 | < 1e-05 | – | –
G41C G63A | < 1e-05 | – | < 1e-05 | –
G43C A52C U57C | < 1e-05 | – | < 1e-05 | –
A6U C11A G13U | < 1e-05 | – | – | –
G29C U30C G37C C70G | 9.14e-05 ± 2.9e-05 | 0.000111 ± 3.5e-05 | 0.000358 ± 0.00011 | –
G35A G43U C68U | < 1e-05 | < 1e-05 | – | –
C34A U55A | < 1e-05 | < 1e-05 | < 1e-05 | –

Variant | self-cleavage kobs at 160 uM GlcN6P [1] [s⁻¹] | self-cleavage kobs at 2500 uM GlcN6P [2] [s⁻¹] | self-cleavage kobs at 640 uM GlcN6P [3] [s⁻¹] | self-cleavage kobs at 10000 uM GlcN6P [4] [s⁻¹]
C8U G59U G63C | < 1e-05 | < 1e-05 | < 1e-05 | –
G35A C58U | < 1e-05 | < 1e-05 | – | < 1e-05
U30A G35C | < 1e-05 | < 1e-05 | < 1e-05 | < 1e-05
G43U U69G | < 1e-05 | – | < 1e-05 | < 1e-05
G32U A48U G60A | < 1e-05 | – | – | –
C58G C68G C71U | 9.65e-05 ± 2.3e-05 | – | – | –
A6U G43U U57A | < 1e-05 | < 1e-05 | < 1e-05 | –
A12G G40U G62C | < 1e-05 | < 1e-05 | < 1e-05 | –
C11G A15C A33C C34G U55C | < 1e-05 | – | < 1e-05 | –
G13U G41U C61G C71G | < 1e-05 | < 1e-05 | < 1e-05 | –
G29U G43A C70A | < 1e-05 | – | – | –
A36U U45C | < 1e-05 | < 1e-05 | < 1e-05 | < 1e-05
C61U C67U | < 1e-05 | – | < 1e-05 | –
G7A A14C A36C A64U | < 1e-05 | < 1e-05 | < 1e-05 | –
C34G U46A | < 1e-05 | < 1e-05 | – | < 1e-05
G37C U65A | < 1e-05 | – | < 1e-05 | –
A36U G44A U55A | < 1e-05 | < 1e-05 | – | –
G66C C68G | 0.000523 ± 0.00015 | – | – | –
G35U A53C | < 1e-05 | < 1e-05 | – | < 1e-05
A14U G43U G51C | < 1e-05 | – | – | –
C16G G44C | < 1e-05 | – | < 1e-05 | –
G32U G51U A53U G66U C71U | < 1e-05 | < 1e-05 | < 1e-05 | –
G43A A52U | < 1e-05 | < 1e-05 | < 1e-05 | –
G29C U46G U47A C70G | 5.51e-05 ± 2.1e-05 | 6.12e-05 ± 2.5e-05 | 0.00011 ± 3.9e-05 | –
G40C A64U | < 1e-05 | – | < 1e-05 | –
